3 molecules from US20150079071A1 (University of California, published 2015) can be followed below.

In assay [1] the target is T1, Itgb1 (endogenous mouse integrin-beta1 of EpH4 mammary epithelial cells) (mouse, UniProt P09055 21-798).
T1 construct: Endogenous protein in EpH4 cell lysate; also called integrin-β1
The assay is described as follows: anti-FLAG M2 bead IP from EpH4 lysate, Western blot for Itgb1. The source says: FIG. 14. […] The heat map indicator is presented to show the intensity of the FRET signal. (iv) Quantification of FRET signals. ˜200 FRET signals were quantified on each condition. Data are mean+/−S.E., (****) indicates p<0.001. […] Immuno-complexes are used for IP-WB analysis.
(A western blot detects proteins with antibodies after separation by electrophoresis.)

Assay [2] addresses T2, heat-shock protein 90β (HSP90β), endogenous, in conditioned medium of SCp2 cells (mouse, UniProt P11499 2-724).
T2 construct: also called HSP90b; extracellular HSP90β
Description: reverse co-IP of HSP90β protein complexes from CM of control SCp2 cells, Western blot. On the procedure:
For co-IP of HSP90β protein complexes, CM was incubated with 10 μg of control rabbit IgG or anti-HSP90β antibody for 16 h at 4° C. Precipitation was performed with protein G sepharose beads (17-0618-01, GE Healthcare) for 4 h at 4° C. The beads were then washed three times with 0.05% Tween/PBS, and the immune complexes were directly eluted with electrophoresis sample buffer and analyzed by Western blotting.

T2 sequence (P11499 2-724 limits assumed): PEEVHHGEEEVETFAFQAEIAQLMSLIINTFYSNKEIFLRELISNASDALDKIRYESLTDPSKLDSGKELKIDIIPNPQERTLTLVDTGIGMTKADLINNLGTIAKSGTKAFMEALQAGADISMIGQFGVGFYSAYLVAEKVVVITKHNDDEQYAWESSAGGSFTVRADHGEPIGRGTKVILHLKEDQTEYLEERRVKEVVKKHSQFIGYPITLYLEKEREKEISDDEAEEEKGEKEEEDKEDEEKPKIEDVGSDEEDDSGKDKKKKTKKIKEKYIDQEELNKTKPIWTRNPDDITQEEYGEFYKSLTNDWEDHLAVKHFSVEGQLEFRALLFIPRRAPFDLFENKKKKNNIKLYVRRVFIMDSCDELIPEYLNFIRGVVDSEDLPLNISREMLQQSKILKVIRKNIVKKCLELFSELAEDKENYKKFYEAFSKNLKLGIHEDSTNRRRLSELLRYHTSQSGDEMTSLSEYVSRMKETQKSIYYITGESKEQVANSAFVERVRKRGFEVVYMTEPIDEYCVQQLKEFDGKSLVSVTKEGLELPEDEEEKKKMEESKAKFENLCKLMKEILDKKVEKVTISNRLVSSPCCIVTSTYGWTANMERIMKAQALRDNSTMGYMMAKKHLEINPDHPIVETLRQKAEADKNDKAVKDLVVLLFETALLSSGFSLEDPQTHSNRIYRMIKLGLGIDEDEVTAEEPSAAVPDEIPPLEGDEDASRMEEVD
T1 sequence (P09055 21-798 limits assumed): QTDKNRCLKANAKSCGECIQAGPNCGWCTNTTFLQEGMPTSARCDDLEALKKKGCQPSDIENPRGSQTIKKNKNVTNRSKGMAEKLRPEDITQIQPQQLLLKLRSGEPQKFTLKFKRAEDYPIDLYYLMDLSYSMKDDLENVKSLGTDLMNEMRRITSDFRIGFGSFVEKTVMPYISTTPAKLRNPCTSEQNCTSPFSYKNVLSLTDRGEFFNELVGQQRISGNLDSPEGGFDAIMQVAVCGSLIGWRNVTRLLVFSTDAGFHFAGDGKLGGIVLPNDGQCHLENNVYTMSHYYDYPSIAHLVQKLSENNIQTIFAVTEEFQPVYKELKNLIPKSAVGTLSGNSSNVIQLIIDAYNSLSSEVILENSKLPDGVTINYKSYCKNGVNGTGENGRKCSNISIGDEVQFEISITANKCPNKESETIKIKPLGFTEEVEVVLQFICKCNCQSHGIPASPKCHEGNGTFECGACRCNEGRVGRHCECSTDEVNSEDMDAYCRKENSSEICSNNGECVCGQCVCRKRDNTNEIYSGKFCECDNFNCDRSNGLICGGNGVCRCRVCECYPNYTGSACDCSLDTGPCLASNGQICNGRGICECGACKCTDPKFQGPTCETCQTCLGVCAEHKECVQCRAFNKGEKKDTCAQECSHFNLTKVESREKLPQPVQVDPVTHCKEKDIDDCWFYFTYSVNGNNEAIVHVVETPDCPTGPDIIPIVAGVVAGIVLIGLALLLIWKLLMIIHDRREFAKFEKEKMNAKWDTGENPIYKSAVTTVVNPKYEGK

B1: MMP14F-dCAT (FLAG tagged human MMP14, catalytic domain deleted mutant, deletion of Tyr112-Pro312) (enzyme)
chain: not shown
notes: also called MMP14dCAT; not shown: FLAG tag
With B1, the binding result in assay [1] is “no binding”.

B2: annexin A2 (ANXA2), endogenous, in conditioned medium of SCp2 cells (other, mouse, UniProt P07356 2-339, looked up)
chain: STVHEILCKLSLEGDHSTPPSAYGSVKPYTNFDAERDALNIETAVKTKGVDEVTIVNILTNRSNVQRQDIAFAYQRRTKKELPSALKSALSGHLETVILGLLKTPAQYDASELKASMKGLGTDEDSLIEIICSRTNQELQEINRVYKEMYKTDLEKDIISDTSGDFRKLMVALAKGRRAEDGSVIDYELIDQDARELYDAGVKRKGTDVPKWISIMTERSVCHLQKVFERYKSYSPYDMLESIKKEVKGDLENAFLNLVQCIQNKPLYFADRLYDSMKGKGTRDKVLIRIMVSRSEVDMLKIRSEFKRKYGKSLYYYIQQDTKGDYQKALLYLCGGDD
For B2, the binding result in assay [2] is recorded as “no binding”.

B3: myristoylated alanine-rich C-kinase substrate (MARCKS), endogenous, in conditioned medium of SCp2 cells (other, mouse, UniProt P26645 2-309, looked up)
chain: GAQFSKTAAKGEATAERPGEAAVASSPSKANGQENGHVKVNGDASPAAAEPGAKEELQANGSAPAADKEEPASGSAATPAAAEKDEAAAATEPGAGAADKEAAEAEPAEPSSPAAEAEGASASSTSSPKAEDGAAPSPSSETPKKKKKRFSFKKSFKLSGFSFKKSKKESGEGAEAEGATAEGAKDEAAAAAGGEGAAAPGEQAGGAGAEGAAGGEPREAEAAEPEQPEQPEQPAAEEPQAEEQSEAAGEKAEEPAPGATAGDASSAAGPEQEAPAATDEAAASAAPAASPEPQPECSPEAPPAPTAE
Take B3: in assay [2], the binding result was “no binding”.
